Data published in publication PMC2894018 (2010).

B1: HIV-1 Vpr from NL43 (Vpr^wt) fused to the N- or C-terminal fragment of Venus [HIV-1 (NL43)] / itself (parent complex)
chain: MEQAPEDQGPQREPYNEWTLELLEELKSEAVRHFPRIWLHNLGQHIYETYGDTWAGVEAIIRILQQLLFIHFRIGCRHSRIGVTRQRRARNGASRS

Variants of: B1
Test: BiFC (bimolecular fluorescence complementation), flow cytometry on cells; cells cotransfected with VC and VN fusions of the same Vpr mutant; vector control 0.1; parent: 35.7
chain 1 L68E gave a response of 1.03 % BiFC positive cells. chain 1 H71R was tested, and the response was 1.65 % BiFC positive cells. Work on chain 1 A30L yielded a response of 1.19 % BiFC positive cells.
